Results: IntAct's records for PubMed 29187380

Key:
dock7_human DOCK7 = dock7_human DOCK7 (UniProt Q96N67)
vac14_human VAC14 = vac14_human VAC14 (UniProt Q08AM6)
Chain of UniProt Q08AM6 (Q08AM6 whole entry): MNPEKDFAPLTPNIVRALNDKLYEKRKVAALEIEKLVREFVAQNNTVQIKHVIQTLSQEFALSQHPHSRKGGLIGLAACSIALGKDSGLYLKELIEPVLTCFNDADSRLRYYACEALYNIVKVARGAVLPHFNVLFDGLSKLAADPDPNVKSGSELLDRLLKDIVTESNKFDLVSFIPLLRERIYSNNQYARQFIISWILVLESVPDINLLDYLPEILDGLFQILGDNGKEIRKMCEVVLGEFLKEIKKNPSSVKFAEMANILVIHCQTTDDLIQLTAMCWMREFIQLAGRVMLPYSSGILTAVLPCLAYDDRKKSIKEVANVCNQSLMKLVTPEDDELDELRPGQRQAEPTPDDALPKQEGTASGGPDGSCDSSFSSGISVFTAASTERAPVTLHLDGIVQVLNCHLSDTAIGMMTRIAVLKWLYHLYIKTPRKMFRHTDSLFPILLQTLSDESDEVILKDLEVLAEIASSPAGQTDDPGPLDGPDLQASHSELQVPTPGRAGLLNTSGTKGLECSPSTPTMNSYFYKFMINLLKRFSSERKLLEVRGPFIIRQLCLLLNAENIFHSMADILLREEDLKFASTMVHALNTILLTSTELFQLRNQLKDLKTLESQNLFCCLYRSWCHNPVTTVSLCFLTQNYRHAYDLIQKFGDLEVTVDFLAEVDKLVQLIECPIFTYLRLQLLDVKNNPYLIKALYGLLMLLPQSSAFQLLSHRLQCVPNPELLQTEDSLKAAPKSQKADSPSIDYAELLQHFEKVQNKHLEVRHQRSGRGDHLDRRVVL

Chain of UniProt Q96N67 (Q96N67 whole entry): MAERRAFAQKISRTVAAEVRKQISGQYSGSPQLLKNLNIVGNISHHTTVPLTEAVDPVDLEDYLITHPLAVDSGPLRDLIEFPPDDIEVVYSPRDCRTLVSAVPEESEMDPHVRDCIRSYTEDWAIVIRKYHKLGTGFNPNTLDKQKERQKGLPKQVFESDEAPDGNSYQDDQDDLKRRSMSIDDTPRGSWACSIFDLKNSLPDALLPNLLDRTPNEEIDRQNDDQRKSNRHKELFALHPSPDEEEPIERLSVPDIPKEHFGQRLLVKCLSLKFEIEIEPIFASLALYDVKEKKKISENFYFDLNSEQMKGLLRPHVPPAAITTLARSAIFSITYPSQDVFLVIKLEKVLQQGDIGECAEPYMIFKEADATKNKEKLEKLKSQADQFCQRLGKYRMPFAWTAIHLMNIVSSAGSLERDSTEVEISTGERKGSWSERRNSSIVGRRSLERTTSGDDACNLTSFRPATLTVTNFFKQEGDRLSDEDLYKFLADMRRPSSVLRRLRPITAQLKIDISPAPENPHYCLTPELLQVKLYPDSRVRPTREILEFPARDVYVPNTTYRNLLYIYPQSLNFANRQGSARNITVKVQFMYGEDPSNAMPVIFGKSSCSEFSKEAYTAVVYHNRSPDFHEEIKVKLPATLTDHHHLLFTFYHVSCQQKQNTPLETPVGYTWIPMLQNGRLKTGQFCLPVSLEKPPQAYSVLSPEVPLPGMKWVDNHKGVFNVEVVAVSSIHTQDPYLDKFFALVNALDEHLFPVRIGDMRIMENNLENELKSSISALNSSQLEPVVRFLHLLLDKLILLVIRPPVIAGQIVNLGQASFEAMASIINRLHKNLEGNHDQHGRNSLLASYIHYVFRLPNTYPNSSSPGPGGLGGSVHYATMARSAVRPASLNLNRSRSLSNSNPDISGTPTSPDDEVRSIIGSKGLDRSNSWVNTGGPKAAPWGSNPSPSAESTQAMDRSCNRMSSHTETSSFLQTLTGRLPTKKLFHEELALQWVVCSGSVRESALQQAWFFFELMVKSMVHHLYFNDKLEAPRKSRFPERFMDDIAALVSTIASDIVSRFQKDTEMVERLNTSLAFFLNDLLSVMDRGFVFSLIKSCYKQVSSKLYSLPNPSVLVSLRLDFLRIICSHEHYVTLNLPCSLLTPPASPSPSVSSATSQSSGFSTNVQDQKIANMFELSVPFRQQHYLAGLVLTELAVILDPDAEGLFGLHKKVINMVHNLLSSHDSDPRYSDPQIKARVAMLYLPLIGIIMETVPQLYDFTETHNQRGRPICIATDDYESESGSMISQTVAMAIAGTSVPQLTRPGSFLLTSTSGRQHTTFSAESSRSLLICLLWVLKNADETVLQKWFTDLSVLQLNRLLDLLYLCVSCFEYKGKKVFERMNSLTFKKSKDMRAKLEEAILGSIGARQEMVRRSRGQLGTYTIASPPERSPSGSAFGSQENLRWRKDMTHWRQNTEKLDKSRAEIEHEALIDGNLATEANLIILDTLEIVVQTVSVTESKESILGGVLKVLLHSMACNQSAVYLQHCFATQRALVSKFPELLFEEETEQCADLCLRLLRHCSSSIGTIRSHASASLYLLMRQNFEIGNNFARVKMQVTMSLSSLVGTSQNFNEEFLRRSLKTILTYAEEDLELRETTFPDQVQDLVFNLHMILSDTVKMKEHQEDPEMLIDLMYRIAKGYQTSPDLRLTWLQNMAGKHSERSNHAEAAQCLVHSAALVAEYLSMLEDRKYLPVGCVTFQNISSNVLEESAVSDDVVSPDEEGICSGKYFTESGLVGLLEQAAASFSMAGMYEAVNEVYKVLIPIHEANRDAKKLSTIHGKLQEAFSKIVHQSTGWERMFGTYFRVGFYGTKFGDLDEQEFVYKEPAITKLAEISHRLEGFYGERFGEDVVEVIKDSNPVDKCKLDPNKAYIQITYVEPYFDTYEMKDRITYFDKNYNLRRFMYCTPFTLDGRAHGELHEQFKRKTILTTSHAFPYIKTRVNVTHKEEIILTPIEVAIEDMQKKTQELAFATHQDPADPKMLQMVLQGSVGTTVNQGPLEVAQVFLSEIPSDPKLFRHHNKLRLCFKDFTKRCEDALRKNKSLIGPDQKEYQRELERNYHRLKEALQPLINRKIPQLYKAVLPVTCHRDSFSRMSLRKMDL

Substance	effect of a mutation on the interaction (dock7_human DOCK7)	effect of a mutation on the interaction (vac14_human VAC14)
Neurobeachin-like protein 2 (Homo sapiens), Q6ZNJ1 G2290W;E2294G	decreasing interaction strength	decreasing interaction strength
Neurobeachin-like protein 2 (Homo sapiens), Q6ZNJ1 M2080K	with no effect	decreasing interaction strength
Neurobeachin-like protein 2 (Homo sapiens), Q6ZNJ1 P2100L	disrupting interaction strength	decreasing interaction strength
Neurobeachin-like protein 2 (Homo sapiens), Q6ZNJ1 R2172H	disrupting interaction strength	with no effect
Neurobeachin-like protein 2 (Homo sapiens), Q6ZNJ1 S2269L	with no effect	increasing interaction strength
